Experiments:
Trio_(1284-2638) (human) = Trio_(1284-2638) (human) (UniProt O75962)

RhoA GEF activity (FRET-based nucleotide exchange assay with MANT-GTP), enhancement by 200 nM Gαq·GDP·AlF4^- (Trio_(1284-2638) (human)): 2.5 fold | RhoA GEF activity (FRET-based nucleotide exchange assay with MANT-GTP), enhancement by 200 nM Gαq·GDP·AlF4^- (TrioC (human)): 2.5 fold
Substance: Gαq·GDP·AlF4^- (from UniProt P21279 1-359) (natural protein)

— publication PMC9372627
